One may read the Kd as the constant that tells how readily two partners part at equilibrium.

This is an account of results in US20210188968A1 (AB2 BIO, published 2021).

Assay [1] has as its target T1, recombinant human interleukin-18 (human, UniProt Q14116 37-193).
T1 construct: Commercially available recombinant human IL-18; also called IL-18; free IL-18
T1 sequence (looked up): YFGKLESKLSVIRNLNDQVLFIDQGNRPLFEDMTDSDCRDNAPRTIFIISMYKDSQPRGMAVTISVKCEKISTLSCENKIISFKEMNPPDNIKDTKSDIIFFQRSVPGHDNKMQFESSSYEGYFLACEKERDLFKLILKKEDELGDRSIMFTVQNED
The experiment in a line: free IL-18 ELISA (IL-18BP-coated plate); 400 pg/mL IL-18 in PBS/5% BSA spiked with 0-10000 pg/mL IL-18BP. On the procedure: A description of the purification protocol is provided in section 6.6.2. Plates are incubated for a period of time at 4° C. and then stabilized with a blocking buffer containing bovine serum albumin or other appropriate blocking agents. Once the reaction is finished, microplates are sealed and stored at 4° C. until used for detection of free IL-18. Microplates can also be dried in a stabilizing solution allowing storage at room temperature and then be reconstituted by hydration when needed for assay.

The target of assay [2] is T1, recombinant human interleukin-18. The experiment in a line: competition in solution: 400 pg/ml IL-18 spiked with rising IL-18BP; remaining free IL-18 detected by ELISA with plate-bound IL-18BP as capture. A general note: ELISA stands for enzyme-linked immunosorbent assay.
The target is the same in assay [3]. Description: Luminex, antibody on IL-18 beads. On the procedure: Following immunization, B cells were isolated from spleen and hybridized following standard hybridoma technology. […] The screening was performed in 3 sequential and selective steps: [1253] First step. […] [1254] Second step. […] For this, monoclonal antibodies were bound to Luminex beads carrying IL-18. […] [1255] Third step.

Assay [4] has as its target T2, IL-18/IL-18BP complex (human, UniProt Q14116 37-193).
T2 construct: Non-covalent 1:1 complex; In the third screening step IL-18BP was linked to Luminex beads and then complexed to IL-18; also called IL-18 previously complexed to IL-18BP; complex IL-18-IL-18BP
T2 sequence 1: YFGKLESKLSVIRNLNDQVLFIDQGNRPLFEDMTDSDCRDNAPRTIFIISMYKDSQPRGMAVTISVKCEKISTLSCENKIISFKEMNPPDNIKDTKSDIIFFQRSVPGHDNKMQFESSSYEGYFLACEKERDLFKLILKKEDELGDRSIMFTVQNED
T2 sequence 2: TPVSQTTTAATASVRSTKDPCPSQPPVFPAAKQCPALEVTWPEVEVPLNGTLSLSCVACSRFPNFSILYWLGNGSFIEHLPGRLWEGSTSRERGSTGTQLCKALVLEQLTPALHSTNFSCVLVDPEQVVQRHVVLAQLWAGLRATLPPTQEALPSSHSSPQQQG
The experiment in a line: Luminex, third screening against first screening.

In assay [5] the target is T2, IL-18/IL-18BP complex. Description: Luminex, antibody on IL-18 presented by IL-18BP-linked beads.
The target of assay [6] is T1, recombinant human interleukin-18. Description: titration of antibody with a defined IL-18 molarity; KD from EC50 by Law of Mass Action. On the procedure: (§1) The respective KD values of each monoclonal antibody was calculated following titration of the antibodies with a defined IL-18 molarity and derived from the obtained EC₅₀ values with the Law of Mass Action (see above).

The target is the same in assay [7]. The experiment in a line: Luminex, biotinylated IL-18BP (competitor) on IL-18 beads pre-complexed with the antibody.
Assay [8] shares this target. The experiment in a line: titration of antibody with a defined IL-18 molarity; KD from EC50 by Law of Mass Action; mean. On the procedure:
as §1

The target is the same in assay [9]. The experiment in a line: after clone dilution; method not detailed.

B1: recombinant human IL-18 Binding Protein (r-hIL-18BP), isoform a (other)
chain: TPVSQTTTAATASVRSTKDPCPSQPPVFPAAKQCPALEVTWPEVEVPLNGTLSLSCVACSRFPNFSILYWLGNGSFIEHLPGRLWEGSTSRERGSTGTQLCKALVLEQLTPALHSTNFSCVLVDPEQVVQRHVVLAQLWAGLRATLPPTQEALPSSHSSPQQQG
notes: It was biotinylated in the second screening step and linked to Luminex beads in the third; also called human IL-18BP; IL-18BPa
B1: the “molar ratio IL-18BP/IL-18 at which free IL-18 is near background” value in [1] is ~15 fold. Besides, in assay [2], the “IC50 (read off the curve)” value was ~2 ng/mL.

B2: Antibody 107C6 (antibody, V domains shown)
VH: QIQLVQSGPELKKPGETVKLSCRASGYTFTNYGMNWVKQAPGKGLKWMGWINTYSGVPTYADDFKGQFAFSLETSAATAFLQINNLKDEDTATYFCAREGYSTTRSMDYWGQGTSVTVSS
VL: DIVMSQSPSSLAVSAGEKVTMSCKSSQSLLDSRTRKNYLVWYQQKPGQSPKLLIYWASTRGSGVPDRFTGSGSGTDFTLTISSVQAEDLAVYYCKQSYNLRTFGGGTKLEIK
notes: Mouse hybridoma monoclonal antibody; also called clone #107C6
Take B2: the Fluorescence intensity amounted to 26200 fluorescence intensity in assay [3] and 33 fluorescence intensity with IL-18/IL-18BP complex [5]. Further, the “fold inhibition of binding on IL-18 complexed to IL-18BP against binding on IL-18” value (shortened to “fold inhibition of binding”) with IL-18/IL-18BP complex [4] was > 500 fold. Also, the Kd in [6] and in assay [8] was < 2 pM in each case. The “Fluorescence intensity of IL-18BP binding” value in assay [7] turned out to be 1390 fluorescence intensity.

B3: Antibody 108F8 (antibody, V domains shown)
VH: QIQLVQSGPDSKKPGETVKLSCRASGYTFTNYGMNWVKQAPGKGLKWMGWINTYSGVPTYADDFKGQFAFSLETSAATAFLQINNLKDEDTATYFCAREGYSTTRSMDYWGQGTSVTVSS
VL: DIVMSQSPSSLAVSAGEKVTMSCKSSQSLLDSRTRKNYLVWYQQKPGQSPKLLIYWASTRGSGVPDRFTGSGSGTDFTLTISSVQAEDLAVYYCKQSYNLRTFGGGTKLEIK
notes: Mouse hybridoma monoclonal antibody
Turning to B3, the Fluorescence intensity is 25100 fluorescence intensity in assay [3] and 45 fluorescence intensity in the assay with IL-18/IL-18BP complex [5]. Further, the “fold inhibition of binding” value with IL-18/IL-18BP complex [4] was > 500 fold. The Kd in assay [6] and in [8] was < 2 pM each time. Moreover, in assay [7], the “Fluorescence intensity of IL-18BP binding” value amounted to 1290 fluorescence intensity.

B4: Antibody 109A6 (antibody, V domains shown)
VH: EVQLQQSGAELVKPGASVKLSCTASGFKIKDTYIHWVIQRPAQGLEWIGRIDPANGNTIYGSKFQGKATLTADTSSNTAYIHLSSLTSGDSAVYYCAGYVWFAYWGQGTLVTVSA
VL: DVVMTQVPLSLPVSLGDQASISCRSSQRLVHSNGNTYLHWFLQKPGQSPKLLIYTVSNRFSGVPDRFSGSGSGTDFTLKISRVEAEDLGVYFCSQSTLVPWTFGGGTKLEIK
notes: as for B3
On to B4, for which the figures for the Fluorescence intensity (in [3]; with IL-18/IL-18BP complex [5]) were 25800 fluorescence intensity and 33 fluorescence intensity, respectively. Besides, the “fold inhibition of binding” value with IL-18/IL-18BP complex [4] was > 500 fold. The Kd in [6] and in assay [8] was 10 pM each time. Further, the “Fluorescence intensity of IL-18BP binding” value in assay [7] was found to be 913 fluorescence intensity.

B5: Antibody 131B4-2 (antibody, V domains shown)
VH: EVQLQQSGAELVKPGASVKLSCTASGFKIKDTYIHWLKQRPEQGLEWIGRIDPANGNTIYGSKFQGKATITADTSSNTAYIQLSSLTSGDTAVYFCAGYVWFAYWGQGTLVTVSA
VL: DAVLTQTPLSLPVSLGDQASISCTSSQSLVHSNGNTYLHWYLQKPGQSPKLLIYKVSDRFSGVPDRFSGSGSGTDFTLMITRVEAEDLGVYFCSQSSLVPWTFGGGTKLEVK
notes: Mouse monoclonal antibody obtained on clone dilution
As for B5, the binding result in [9] was “binds”.

B6: Antibody 132H4 (antibody, V domains shown)
VH: EVKLVESGGGLVKPGGSLKLSCAASGFTFSNYAMSWVRQNPAKRLEWVATISSGGANIYYPDSVKGRFIISRDNARNTLYLQMSSLRSEDTAMYYCARGDYFNHFWFAYWGQGTLVTVSA
VL: DVLMTQTPLSLPVSLGDQASISCRSSQSIVHSNGNTYLEWYLQKPGQSPKFLIYKVSNRFSGVPDRFSGSGSGTDFTLKINRVEAEDLGIYYCFQGSHVPWTFGGGTKLEIK
notes: as for B3
Take B6: the Fluorescence intensity in assay [3] stood at 23800 fluorescence intensity; with IL-18/IL-18BP complex [5] it was 28 fluorescence intensity. Also, the “fold inhibition of binding” value with IL-18/IL-18BP complex [4] is > 500 fold. For the same molecule, the equilibrium dissociation constant (Kd) in [6] and in [8] was 5 pM each time. Further, the “Fluorescence intensity of IL-18BP binding” value in assay [7] is 1490 fluorescence intensity.
